Source: patent publication US20060142171A1, “Novel alkaline protease” (priority 2003, published 2006)

Tests used:
casein = assay: Protease activity with casein as substrate (specific activity, pH and temperature profile); assay type: biochemical; conditions: for Optimum pH for activity: assayed at 50° C.
Description: The AL protease activity with 0.1-4% (w/v) casein and haemoglobin (Sigma), respectively, as protein substrates, was determined using a modified method of Ferrero et al. (1996). The reaction mixture in a total volume of 1 ml containing the substrate and an appropriate amount of the enzyme in 50 mM glycine-NaOH buffer, pH 10 was incubated at […] for 20 min, after which the reaction was terminated by addition of 0.5 ml trichloroacetic acid with subsequent centrifugation. To 0.5 ml supernatant was added 2.5 ml sodium carbonate followed by 0.5 ml of 1 M Folin-Ciocalteau Phenol reagent (Sigma). The reaction mixture was allowed to stand for 30 min-at room temperature before absorbance was measured at 660 nm. One unit of enzyme activity is defined as amount of the enzyme, which released 1 μg tyrosine per minute under the assay conditions.
Protease activity was determined using casein as substrate as described earlier [3.12]. The reaction mixture in a total volume of 2 ml was composed of 1% casein, 50 mM glycine-NaOH buffer, pH 10, and appropriately diluted enzyme. After 20 min incubation at 50° C. the reaction was terminated by adding equal volume of 10% trichloroacetic acid (TCA). After separation of the unreacted casein precipitate by centrifugation, 0.5 ml of clear supernatant was mixed with 2.5 ml of 0.5 M Na2CO3 and 0.5 ml of 1 N Folin-Ciocalteau's phenol reagent. After 30 min at 25° C., absorbance was measured at 660 nm against a reagent blank. One unit of protease activity was defined as the amount of enzyme that released 1 μg of amino acid equivalent to tyrosine per min under the standard assay conditions.
Both proteases were optimally active in the alkaline region.
The effect of temperature on activity of the two proteases was determined by assaying enzyme activity at different temperatures in glycine-NaOH buffer, pH 10, while the thermal stability was determined by incubating the enzymes at different temperatures followed by measuring the residual activity under standard conditions. These measurements were done both in the presence and absence of 5 mM Ca^2+. […] Its optimum temperature for activity was at 70° C. (FIG. 9A), but when incubated at that temperature the enzyme was inactivated within 1 h (FIG. 10A). […] At temperature values above 50° C. Ca^2+ was absolutely required for the thermal stability of AL-89 protease (FIG. 10B).
Assay of protease activity was performed according to Ferrero et al. with some modifications. One millilitre of the reaction mixture containing 1% casein in 50 mM glycine-NaOH buffer, pH 10.0 and an appropriate amount of enzyme was incubated at 50° C. for 20 min after which the reaction was terminated by addition of 0.5 ml of trichloroacetic acid and centrifuged. 2.5 ml sodium carbonate was added to 0.5 ml supernatant followed by 0.5 ml of 1 M Folin-Ciocalteau reagent. The reaction mixture was allowed to stand for 30 min at room temperature before measuring the absorbance at 660 nm. One unit of protease activity was defined as the amount of enzyme, which released 1 μg tyrosine per min under standard assay conditions.

haemoglobin = assay: Protease activity with haemoglobin as substrate; assay type: biochemical; conditions: 50 mM glycine-NaOH, pH 10 at 50° C.
keratin azure = assay: Keratinolytic activity; assay type: biochemical; conditions: 10 mM glycine-NaOH, pH 10 at 50° C.
Description: The hydrolysis of keratin azure (Sigma) by the AL protease was determined according to the modified method of Santos et al. (1996). The reaction mixture (1.5 ml) comprising 0.5 ml of the enzyme solution and 10 mg keratin-azure in 10 mM glycine-NaOH buffer, pH 10 was incubated at 50° C. with constant shaking over 24 h period. The substrate was removed by centrifugation and liberation of the azo dye was measured at 595 nm. The reaction under similar conditions using heat-treated enzyme (by incubation in a boiling water bath for 15 min) was also run as a control. One unit (U) of keratinolytic activity was defined as an increase in the A595nm of 0.01 after 2 h.

[1] = Circular dichroism spectroscopy; assay type: physicochemical
Description: The conformational stability of the AL protease was examined by circular dichroism (CD) spectroscopy and compared with that of Subtilisin Carlsberg (bacterial protease, type VIII; Sigma Chemical Co., St. Louis, USA). The CD spectra of the proteins were obtained on a Jasco spectropolarimeter model J-720, at 25° C. in the far UV range from 195 to 250 nm at a scan rate of 10 nm/min using a sample cell path length of 0.1 cm. The ellipticity values (θ) for every nm wavelength increase were obtained in mdeg directly from the instrument and were recorded online in a computer. An average of 6 scans was calculated and the corresponding no-enzyme spectra were subtracted for each sample.

[2] = Calcium content by ICP-SMS; assay type: physicochemical; conditions: after treatment with chelex
Description: One millilitre of the purified AL protease (3 mg protein) solution was dialyzed for 24 h at 4° C. against 1 L of 10 mM glycine-NaOH buffer, pH 10.0, pretreated for 48 h with Chelex 100 (BioRad, Hercules, Calif., USA; […]) placed in a dialysis bag. Thereafter the dialysis was repeated three times against the buffer containing Chelex 100 (1.5 g/l) for a total period of 36 h at 4° C. The buffer was prepared from deionised water and plastic containers were used throughout. The residual calcium content In the enzyme sample was determined using Inductively Coupled Plasma-Mass Spectrometry (ICP-SMS).

elastin-orcein = assay: Elastolytic activity; assay type: biochemical; conditions: 100 mM Tris-HCl buffer pH 8.8, 37° C.
Description: Elastolytic activity of AL protease was estimated by the method of (Tsai et al. 1983) with slight modification. The reaction mixture in a total volume of 1.5 ml comprised of 20 mg elastin-orcein and an appropriate amount of the enzyme in 100 mM Tris-HCl buffer pH 8.8, was incubated at 37° C. for 1 h with constant shaking. The substrate was removed by centrifugation and increase in optical density was measured at 590 nm. A control reaction was performed using the denatured enzyme as described above. The concentration of soluble products liberated was calculated from a standard curve using elastase. One unit was defined as the amount of enzyme, which solubilizes 100 μg of elastin under standard reaction conditions.

B1: AL protease: thermostable alkaline, non-Ca2+-dependent serine protease isolated from Nesterenkonia sp. nov. strain AL (DSM 15380); SEQ. ID. NO. 1 (protein, listed as Nesterenkonia sp.)
chain: QNPADSPHIGKVFFSTNQGDFVCSANIVASANQSTVATAGHCLHDGNGGQFARNFVFAPAYDYGESEHGVWAAEELVTSAEWANRGDFEHDYAFAVLETKGGTTVQQQVGTASPIAFNQPRGQYYSAYGYPAAAPFNGQELHSCHGTATNDPMGSSTQGIPCNMTGGSSGGPWFLGQGTGGAQNSVNSYGYTFLPDVMFGPYFGSGAQQNYNYAST
Time to complete hydrolysis of casein (casein; 50 mM glycine-NaOH, pH 10 at 50° C.): ≤ 20 min
Optimum pH for activity (casein): 10
Optimum pH for activity (casein; listed as alkaline protease from Nesterenkonia sp. nov. strain): 10
Activity as % of peak activity (casein; at pH 12): about 60%
Activity as % of maximum activity (casein; between pH 7.5 to 11.5): over 90%
Optimum temperature for activity (casein; glycine-NaOH buffer, pH 10, same in presence and absence of 5 mM Ca^2+): 70 °C
Specific activity (casein; purified enzyme, casein as substrate, pH 10, 50° C., listed as Nesterenkonia sp. AL protease): 1802.3 U/mg
Ca^2+ dependence of activity and stability (casein; with and without 5 mM Ca^2+, all temperatures tested): Ca^2+ independent
Time to complete hydrolysis of haemoglobin (haemoglobin): ≤ 20 min
Time of main hydrolysis of keratin-azure (keratin azure): 2 to 12 h
Secondary structure in the presence of SDS ([1]; 0.1-1% (w/v) SDS, data not shown): no alteration
Secondary structure after incubation ([1]; 24 h at 50° C., 10 mM glycine-NaOH buffer, pH 10.0): undisturbed
Ca^2+ content [2]: 0.109 mol/mol
Hydrolysis of elastin-orcein (elastin-orcein): able to hydrolyse elastin-orcein to a detectable level
